These are literature values, as cited in PMC3018525.

pKd: −log10 of the molar value. Read-outs that look alike come from different tables or passages of the source.

The target of data set [1] is EGF (Homo sapiens) (UniProt P01133).
Data set [2] shares this target. The source holds these as a separate data set.

Chain of UniProt P01133 (P01133 971-1023): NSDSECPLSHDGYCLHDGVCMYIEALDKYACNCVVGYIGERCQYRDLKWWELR

Take “EGFR (high-affinity) (from UniProt P00533)”: the pKd (usually the negative decadic logarithm of the Kd, by convention in mol/L) with EGF (Homo sapiens) [1] was 9.52.
With “EGFR (low-affinity) (from UniProt P00533)”, the pKd with EGF (Homo sapiens) [2] is 8.70.
